From patent US20100021987

Assays:
[1] = target: 6xHis-hSUMO-3-eGFP
[2] = target: 6xHis-hSUMO-3-X-eGFP, X = A
[3] = target: 6xHis-hSUMO-3-X-eGFP, X = Q
[4] = target: 6xHis-hSUMO-3-X-eGFP, X = K
[5] = target: 6xHis-hSUMO-3-X-eGFP, X = I
[6] = target: 6xHis-hSUMO-3-X-eGFP, X = T
[7] = target: 6xHis-AtSUMO1-eGFP
[8] = target: 6xHis-hSUMO-1-eGFP
[9] = target: 6xHis-hSUMO-3-X-eGFP, X = N
[10] = target: 6xHis-hSUMO-3-X-eGFP, X = W
[11] = target: 6xHis-hSUMO-3-X-eGFP, X = D
[12] = target: 6xHis-AtSUMO2-eGFP
[13] = target: 6xHis-hSUMO-3-X-eGFP, X = P
[14] = target: 6xHis-hSUMO-3-X-eGFP, X = R
[15] = target: 6xHis-hSUMO-3-X-eGFP, X = S
[16] = target: 6xHis-hSUMO-3-X-eGFP, X = Y
[17] = target: 6xHis-ySmt3-eGFP
[18] = target: 6xHis-hSUMO-3-X-eGFP, X = H
[19] = target: 6xHis-T-SUMO-eGFP
[20] = target: 6xHis-hSUMO-3-X-eGFP, X = G
[21] = target: 6xHis-hSUMO-3-X-eGFP, X = E
[22] = target: 6xHis-hSUMO-3-X-eGFP, X = L
[23] = target: 6xHis-hSUMO-3-X-eGFP, X = V
[24] = target: 6xHis-hSUMO-3-X-eGFP, X = C
[25] = target: 6xHis-hSUMO-3-X-eGFP, X = F

B1: Saccharomyces cerevisiae Ulp1 SUMO protease catalytic domain (protein)
chain: MGLVPELNEKDDDQVQKALASRENTQLMNRDNIEITVRDFKTLAPRRWLNDTIIEFFMKYIEKSTPNTVAFNSFFYTNLSERGYQGVRRWMKRKKTQIDKLDKIFTPINLNQSHWALGIIDLKKKTIGYVDSLSNGPNAMSFAILTDLQKYVMEESKHTIGEDFDLIHLDCPQQPNGYDCGIYVCMNTLYGSADAPLDFDYKDAIRMRRFIAHLILTDALKLEHHHHHH
[1]
  Kcat: Kcat = 0.027
  Km: Km = 15.8 mM
  Percent cleavage, enzyme:substrate 1:100: 98.3%
  Percent cleavage, enzyme:substrate 1:1000: 18.4%
  activity level (grade): +
  cleavage, time course, SDS-PAGE: yUlp1 was able to cleave apparently less than half of the substrate in 4 hrs.
[2]
  Percent cleavage, enzyme:substrate 1:100: 96.3%
  Percent cleavage, enzyme:substrate 1:1000: 27.1%
[3]
  Percent cleavage, enzyme:substrate 1:100: 65.5%
  Percent cleavage, enzyme:substrate 1:1000: 3.7%
[4]
  Percent cleavage, enzyme:substrate 1:100: 22.4%
  Percent cleavage, enzyme:substrate 1:1000: 0%
[5]
  Percent cleavage, enzyme:substrate 1:100: 1.9%
  Percent cleavage, enzyme:substrate 1:1000: 0%
[6]
  Percent cleavage, enzyme:substrate 1:100: 95.8%
  Percent cleavage, enzyme:substrate 1:1000: 14.3%
[7]
  activity level (grade): ++
  cleavage, 2-fold enzyme dilution series, SDS-PAGE: Both hSENP2 and yUlp1 cleaved the AtSUMO1 fusion similarly
  cleavage, time course, SDS-PAGE: cleaving not only T-SUMO but also AtSUMO1 and AtSUMO2 significantly better than did hSENP2
[8]
  activity level (grade): +
  cleavage, time course, SDS-PAGE: both enzymes cleaving hSUMO-1-eGFP poorly
[9]
  Percent cleavage, enzyme:substrate 1:100: 97.9%
  Percent cleavage, enzyme:substrate 1:1000: 16.9%
[10]
  Percent cleavage, enzyme:substrate 1:100: 89.7%
  Percent cleavage, enzyme:substrate 1:1000: 16.8%
[11]
  Percent cleavage, enzyme:substrate 1:100: 92.3%
  Percent cleavage, enzyme:substrate 1:1000: 3.3%
[12]
  activity level (grade): ++
  cleavage, 2-fold enzyme dilution series, SDS-PAGE: a slight advantage in the cleavage of AtSUMO2-eGFP
  cleavage, time course, SDS-PAGE: cleaving not only T-SUMO but also AtSUMO1 and AtSUMO2 significantly better than did hSENP2
[13]
  Percent cleavage, enzyme:substrate 1:100: 0%
  Percent cleavage, enzyme:substrate 1:1000: 0%
[14]
  Percent cleavage, enzyme:substrate 1:100: 96.6%
  Percent cleavage, enzyme:substrate 1:1000: 17.2%
[15]
  Percent cleavage, enzyme:substrate 1:100: 98.2%
  Percent cleavage, enzyme:substrate 1:1000: 16.7%
[16]
  Percent cleavage, enzyme:substrate 1:100: 96.9%
  Percent cleavage, enzyme:substrate 1:1000: 16.9%
[17]
  Kcat: Kcat = 0.40
  Km: Km = 4.5 mM
  activity level (grade): ++++
  cleavage, time course, SDS-PAGE: both enzymes cleaving hSUMO-1-eGFP poorly and ySmt3-eGFP well
[18]
  Percent cleavage, enzyme:substrate 1:100: 90.8%
  Percent cleavage, enzyme:substrate 1:1000: 25.5%
[19]
  activity level (grade): ++
  cleavage, 2-fold enzyme dilution series, SDS-PAGE: yUlp1 had a distinct advantage in the cleavage of T-SUMO-eGFP
  cleavage, time course, SDS-PAGE: cleaving not only T-SUMO but also AtSUMO1 and AtSUMO2 significantly better than did hSENP2
[20]
  Percent cleavage, enzyme:substrate 1:100: 96.5%
  Percent cleavage, enzyme:substrate 1:1000: 27%
[21]
  Percent cleavage, enzyme:substrate 1:100: 80.1%
  Percent cleavage, enzyme:substrate 1:1000: 11.3%
[22]
  Percent cleavage, enzyme:substrate 1:100: 4.4%
  Percent cleavage, enzyme:substrate 1:1000: 0%
[23]
  Percent cleavage, enzyme:substrate 1:100: 20.2%
  Percent cleavage, enzyme:substrate 1:1000: 4%
[24]
  Percent cleavage, enzyme:substrate 1:100: 98.4%
  Percent cleavage, enzyme:substrate 1:1000: 25.3%
[25]
  Percent cleavage, enzyme:substrate 1:100: 95.4%
  Percent cleavage, enzyme:substrate 1:1000: 27%

B2: Arabidopsis thalania ULP1c (AtULP1c) SUMO protease catalytic domain (protein)
chain: MVVEEACELPEGLPEDIYYPSSDQSDGRDLVQVSLKDLKCLSPGEYLTSPVINFYIRYVQHHVFSADKTAANCHFFNTFFYKKLTEAVSYKGNDRDAYFVKFRRWWKGFDLFCKSYIFIPIHEDLHWSLVIICIPDKEDESGLTIIHLDSLGLHPRNLIFNNVKRFLREEWNYLNQDAPLDLPISAKVWRDLPNMINEAEVQVPQQKNDFDCGLFLLFFIRRFIEEAPQRLTLQDLKMIHKKWFKPEEASALRIKIWNILVDLFRKGNQTDLEHHHHHH
[1]
  activity level (grade): -
  cleavage, single enzyme concentration, SDS-PAGE: AtULP1c did not show activity against any of the SUMO fusions
[7]
  activity level (grade): -
  cleavage, single enzyme concentration, SDS-PAGE: AtULP1c did not show activity against any of the SUMO fusions
[8]
  activity level (grade): -
  cleavage, single enzyme concentration, SDS-PAGE: AtULP1c did not show activity against any of the SUMO fusions
[12]
  activity level (grade): -
  cleavage, single enzyme concentration, SDS-PAGE: AtULP1c did not show activity against any of the SUMO fusions
[17]
  activity level (grade): -
  cleavage, single enzyme concentration, SDS-PAGE: AtULP1c did not show activity against any of the SUMO fusions
[19]
  activity level (grade): -
  cleavage, single enzyme concentration, SDS-PAGE: AtULP1c did not show activity against any of the SUMO fusions

B3: human SENP6 (hSENP6) SUMO protease catalytic domain (protein)
chain: MGENHTIFIGPVEKLIVYPPPPAKGGISVTNEDLHCLNEGEFLNDVIIDFYLKYLVLEKLKKEDADRIHIFSSFFYKRLNQRERRNHETTNLSIQQKRHGRVKTWTRHVDIFEKDFIFVPLNEAAHWFLAVVCFPGLEKPKYEPNPHYHENAVIQKCSTVEDSCISSSASEMESCSQNSSAKPVIKKMLNKKHCIAVIDSNPGQEESDPRYKRNICSVKYSVKKINHTASENEEFNKGESTSQKVADRTKSENGLQNESLSSTHHTDGLSKIRLNYSDESPEAGKMLEDELVDFSEDQDNQDDSSDDGFLADDNCSSEIGQWHLKPTICKQPCILLMDSLRGPSRSNVVKILREYLEVEWEVKKGSKRSFSKDVMKGSNPKVPQQNNFSDCGVYVLQYVESFFENPILSFELPMNLANWFPPPRMRTKREEIRNIILKLQEDQSKEKRKHKDTYSTEAPLGEGTEQYVNSISDLEHHHHHH
[1]
  activity level (grade): +/-
  cleavage, single enzyme concentration, SDS-PAGE: demonstrated partial cleavage of hSUMO-3-eGFP
[7]
  activity level (grade): -
  cleavage, single enzyme concentration, SDS-PAGE: did not digest the others at the incubation time and enzyme concentration used
[8]
  activity level (grade): -
  cleavage, single enzyme concentration, SDS-PAGE: did not digest the others at the incubation time and enzyme concentration used
[12]
  activity level (grade): -
  cleavage, single enzyme concentration, SDS-PAGE: did not digest the others at the incubation time and enzyme concentration used
[17]
  activity level (grade): -
  cleavage, single enzyme concentration, SDS-PAGE: did not digest the others at the incubation time and enzyme concentration used
[19]
  activity level (grade): -
  cleavage, single enzyme concentration, SDS-PAGE: did not digest the others at the incubation time and enzyme concentration used

B4: human SENP1 (hSENP1) SUMO protease catalytic domain (protein)
chain: MASFPEITEEMEKEIKNVFRNGNQDEVLSEAFRLTITRKDIQTLNHLNWLNDEIINFYMNMLMERSKEKGLPSVHAFNTFFFTKLKTAGYQAVKRWTKKVDVFSVDILLVPIHLGVHWCLAVVDFRKKNITYYDSMGGINNEACRILLQYLKQESIDKKRKEFDTNGWQLFSKKSQIPQQMNGSDCGMFACKYADCITKDRPINFTQQHMPYFRKRMVWEILHRKLLEHHHHHH
[1]
  activity level (grade): +
  cleavage, single enzyme concentration, SDS-PAGE: cleaved ySmt3 the best, followed by hSUMO-3
[7]
  activity level (grade): +/-
  cleavage, single enzyme concentration, SDS-PAGE: It also cleaved the other 4 fusions, but to a much lesser extent
[8]
  activity level (grade): +/-
  cleavage, single enzyme concentration, SDS-PAGE: It also cleaved the other 4 fusions, but to a much lesser extent
[12]
  activity level (grade): +/-
  cleavage, single enzyme concentration, SDS-PAGE: It also cleaved the other 4 fusions, but to a much lesser extent
[17]
  activity level (grade): ++
  cleavage, single enzyme concentration, SDS-PAGE: hSENP1, which cleaved ySmt3 the best
[19]
  activity level (grade): +/-
  cleavage, single enzyme concentration, SDS-PAGE: It also cleaved the other 4 fusions, but to a much lesser extent
